# Measurements from US20260200999A1, “SYNTHETIC TRANSCRIPTION FACTORS” (ETH ZURICH, priority 2022, published 2026).
# Entries after “also recorded” stand apart in the source; their conditions may differ.
# T1: MTF (MTERF1 58-399::RelA 430-551) (Homo sapiens, UniProt Q99551 SEQ:2-343)
# T1 chain: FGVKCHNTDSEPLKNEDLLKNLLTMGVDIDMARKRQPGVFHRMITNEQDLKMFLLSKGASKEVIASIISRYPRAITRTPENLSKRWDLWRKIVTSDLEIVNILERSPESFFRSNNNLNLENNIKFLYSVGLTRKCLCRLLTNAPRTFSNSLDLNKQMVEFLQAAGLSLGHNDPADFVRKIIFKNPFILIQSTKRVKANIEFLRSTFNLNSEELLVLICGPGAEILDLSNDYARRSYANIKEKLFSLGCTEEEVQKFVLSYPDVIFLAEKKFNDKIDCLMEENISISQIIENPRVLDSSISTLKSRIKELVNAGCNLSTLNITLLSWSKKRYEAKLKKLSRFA
# T2: MTERF1 58-399::FoxoTAD-LMSTEN-TA1 (Homo sapiens, UniProt Q99551 SEQ:1-342)
# T2 chain: T1 chain
# T3: MTERF1 58-399::2xFoxoTAD (Homo sapiens, UniProt Q99551 SEQ:1-342)
# T3 chain: T1 chain
# T4: MTERF1 58-399::2xTA1 (Homo sapiens, UniProt Q99551 SEQ:1-342)
# T4 chain: T1 chain
# T5: MTERF1 58-399::LMSTEN (Homo sapiens, UniProt Q99551 SEQ:1-342)
# T5 chain: T1 chain
# T6: MTERF1 58-399::FoxoTAD (Homo sapiens, UniProt Q99551 SEQ:1-342)
# T6 chain: T1 chain
# B1: sense-5-8-10 promoter (dsDNA)
# DNA 1: TAAGATGGCAGAGCCCGGTAATAGAGTGCGTAAGATGGCAGAGCCCGGTAATAGAGTGCGTAAGATGGCAGAGCCCGGTAATAGAGTGCGTAAGATGGCAGAGCCCGGTAATAGAGTGCGTAAGATGGCAGAGCCCGGTAATGACTCATATGCTCTAGAGGGTATATAATGGGGGCC
# DNA 2: GGCCCCCATTATATACCCTCTAGAGCATATGAGTCATTACCGGGCTCTGCCATCTTACGCACTCTATTACCGGGCTCTGCCATCTTACGCACTCTATTACCGGGCTCTGCCATCTTACGCACTCTATTACCGGGCTCTGCCATCTTACGCACTCTATTACCGGGCTCTGCCATCTTA
# B2: WT MTERF1: human MTERF1, Uniprot Q99551, including the mitochondrial transfer peptide (protein, listed as Homo sapiens)
# chain: MQSLSLGQTSISKGLNYLTIMAPGNLWHMRNNFLFGSRCWMTRFSAENIFKSVSFRLFGVKCHNTDSEPLKNEDLLKNLLTMGVDIDMARKRQPGVFHRMITNEQDLKMFLLSKGASKEVIASIISRYPRAITRTPENLSKRWDLWRKIVTSDLEIVNILERSPESFFRSNNNLNLENNIKFLYSVGLTRKCLCRLLTNAPRTFSNSLDLNKQMVEFLQAAGLSLGHNDPADFVRKIIFKNPFILIQSTKRVKANIEFLRSTFNLNSEELLVLICGPGAEILDLSNDYARRSYANIKEKLFSLGCTEEEVQKFVLSYPDVIFLAEKKFNDKIDCLMEENISISQIIENPRVLDSSISTLKSRIKELVNAGCNLSTLNITLLSWSKKRYEAKLKKLSRFA
# B3: 5xRE, 0 bp spacing (dsDNA)
# DNA 1: TAAGATGGCAGAGCCCGGTAATTAAGATGGCAGAGCCCGGTAATTAAGATGGCAGAGCCCGGTAATTAAGATGGCAGAGCCCGGTAATTAAGATGGCAGAGCCCGGTAAT
# DNA 2: ATTACCGGGCTCTGCCATCTTAATTACCGGGCTCTGCCATCTTAATTACCGGGCTCTGCCATCTTAATTACCGGGCTCTGCCATCTTAATTACCGGGCTCTGCCATCTTA
# B4: MTF: fusion of human MTERF1 amino acids 58-399 to RELA amino acids 430-551; prototype HumTAP synthetic transcription factor (protein)
# chain: MFGVKCHNTDSEPLKNEDLLKNLLTMGVDIDMARKRQPGVFHRMITNEQDLKMFLLSKGASKEVIASIISRYPRAITRTPENLSKRWDLWRKIVTSDLEIVNILERSPESFFRSNNNLNLENNIKFLYSVGLTRKCLCRLLTNAPRTFSNSLDLNKQMVEFLQAAGLSLGHNDPADFVRKIIFKNPFILIQSTKRVKANIEFLRSTFNLNSEELLVLICGPGAEILDLSNDYARRSYANIKEKLFSLGCTEEEVQKFVLSYPDVIFLAEKKFNDKIDCLMEENISISQIIENPRVLDSSISTLKSRIKELVNAGCNLSTLNITLLSWSKKRYEAKLKKLSRFAQAGEGTLSEALLQLQFDDEDLGALLGNSTDPAVFTDLASVDNSEFQQLLNQGIPVAPHTTEPMLMEYPEAITRLVTGAQRPPDPAPAPLGAPGLPNGLLSGDEDFSSIADMDFSALLSQISS
# Legend:
# [1] = upon ingestion; cited from earlier work
# [2] = molecular target: T7, FKBP (SEQ ID NO: 142) and FRBT2098L (SEQ ID NO: 140) heterodimerization (Homo sapiens, UniProt P42345+P62942+Q04206, T2098L); assay: A/C heterodimerizer-inducible HumTAP gene expression system in HEK293 cells; format: cell-based
# T7 construct: expressed in transfected cells; host or cells: HEK293
# Description: One well-characterized small-molecule based dimerization system is based on the rapamycin analog A/C (C16-(S)-7-methylindolerapamycin) that induces heterodimerization between the human proteins FK506-binding protein 12 (FKBP; SEQ ID NO: 142) and the FKBP12-rapamycin binding domain (FRB) mutant FRBT2098L (SEQ ID NO: 140), [31]. To achieve A/C heterodimerizer-inducible gene expression, the inventors fused FKBP (SEQ ID NO: 142) to the N-terminus of MTERF158-399 (SEQ ID NO: 1) and FRB (SEQ ID NO: 140) to the C-terminus of different transactivation domains (FIG. 10A). […] In accordance with the results described above, chimeric transactivation domains mediated higher maximal output expression levels than RelA430-551.
# The inventors reasoned that in the present system, dimerization might be hindered by either FRB's or FKBP's fusion partner and investigated whether the addition of linkers between the protein domains might impact the EC50 value (FIG. 10 D). A combination of the cMyc nuclear localization signal (NLS) (SEQ ID NO: 122) linking MTERF158-399 and FKBP, and the rigid linker AP6 (SEQ ID NO: 120) linking FRB and RelA430-551 led to a reduction in EC50 to ~60 nM while also increasing maximal output ~3-fold over the variant without linkers and RelA430-551 as TAD (FIG. 10 D).
# [3] = molecular target: FRB and FKBP dimerization (Homo sapiens, UniProt P42345+P62942, T2098L); details: previously reported A/C-inducible FRB and FKBP systems [31], [33]; cited from earlier work
# [4] = molecular target: T1, MTF (MTERF1 58-399::RelA 430-551); assay: cell_activity; mCitrine, HEK293; none without MTF; details: tags: RelA 430-551 TAD fusion
# Description: The inventors next sought to facilitate potential future applications and created a collection of promoters with different strengths to match potential future applications' requirements. Randomly picking 20 variants yielded mostly weak promoters. To maximize diversity in size and strength, the inventors chose 19 further promoters based on their high activity score or small genetic size. Altogether, the inventors created a promoter collection spanning a wide range of sizes and strengths (FIG. 15A, B). After co-transfecting each variant either with or without a MTF plasmid amount corresponding to the EC90, and a mCherry transfection control plasmid into HEK293 cells, relative mCitrine levels were measured using flow cytometry. […]
# [5] = system: endogenous human genes in HEK293 cells; assay: RNA-Seq differential gene expression analysis of transfected HEK293 cells versus junk plasmid (edgeR); format: cell-based; details: transfected HEK293 cells vs "junk" plasmid, FDR<0.5, fold-change of at least 2
# Experimental: The inventors therefore used RNA-Seq to investigate whether MTF (SEQ ID NO: 100) activates the expression of endogenous human genes. The inventors also transfected WT MTERF1 (SEQ ID NO: 108) to compare the gene-regulatory effects of MTERF1 to those of MTF. Differential gene expression analysis was performed against cells that were transfected with a “junk” plasmid using the edgeR software package for R [24]. […] Future investigations will assess the dose-dependency of differentially expressed (DE) genes on MTF amount and may help clarify the origin of DE genes.
# [6] = molecular target: T2, MTERF1 58-399::FoxoTAD-LMSTEN-TA1; assay: cell_activity; HEK293 reporter; details: tags: TAD fusion
# Description: (§1) Upon co-transfection of HEK293 cells with plasmids encoding pEF1a-driven expression of the fusion HumTAPs, a Response Element-driven mCerulean reporter protein, and a mCherry transfection control, all peptides derived from RelA except TA1 mediated high levels of reporter gene expression. Including a larger fraction of the RelA protein led to higher reporter expression. Conversely, the core transactivation domains TA1, WW, ZNF473 KRAB, and NucRecCoAct mediated little to no reporter expression.
# (§2) Similarly, two copies of FoxoTAD (SEQ ID NO: 33) mediated 20-fold more mCerulean expression than just one FoxoTAD copy and ~2-fold more than the benchmark RelA₄₃₀₋₅₅₁ TAD. This effect was not as pronounced for the LMSTEN domain for which two copies (SEQ ID NO: 196) mediated ~2.7-fold more reporter expression than one copy. Fusing FoxoTAD with LMSTEN (SEQ ID NO: 54), LMSTEN with TA1 (SEQ ID NO: 56), or FoxoTAD with TA1 (SEQ ID NO: 58) yields TADs that are at the same time smaller and stronger than the benchmark RelA₄₃₀₋₅₅₁ TAD. A chimeric TAD consisting of FoxoTAD, LMSTEN, and TA1 (SEQ ID NO: 52) yields 3.7 times the amount of reporter gene expression than RelA₄₃₀₋₅₅₁ (FIG. 9 C). It is therefore possible to engineer both stronger and smaller transactivation domains than the commonly used RelA₄₃₀₋₅₅₁ without incorporating protein domains of non-human origin. […]
# MTERF1 58-399::2xFoxoTAD = molecular target: T3, MTERF1 58-399::2xFoxoTAD; assay: cell_activity; HEK293 reporter; details: tags: TAD fusion
# Description: as §1, §2
# MTERF1 58-399::2xTA1 = molecular target: T4, MTERF1 58-399::2xTA1; assay: cell_activity; HEK293 reporter; details: tags: TAD fusion
# MTERF1 58-399::LMSTEN = molecular target: T5, MTERF1 58-399::LMSTEN; assay: cell_activity; HEK293 reporter; TAD effect; details: tags: TAD fusion
# MTERF1 58-399::FoxoTAD = molecular target: T6, MTERF1 58-399::FoxoTAD; assay: cell_activity; HEK293 reporter; TAD effect; details: tags: TAD fusion
# [7] = system: Response Element-driven (SEQ ID NO: 48) mCerulean fluorescent reporter; assay: Orthogonality: MTF-driven reporter with or without WT MTERF1 co-expression; format: cell-based, human; details: HEK293; MTF construct plus reporter SEQ ID NO: 48, with or without EF1a-driven WT MTERF1
# Description: To assess the orthogonality of the host towards the Response Element-driven Gene of Interest (Gol), the inventors transfected a HumTAP representative MTF (SEQ ID NO: 100) with a Response Element-driven (SEQ ID NO: 48) mCerulean fluorescent reporter, with and without the construct encoding a wild-type MTERF1 to assess whether it might interfere with the induction of the Gol by MTF (FIG. 7B).
# T7 sequence (P62942 with tags, fused parts or gaps, stated change not applied): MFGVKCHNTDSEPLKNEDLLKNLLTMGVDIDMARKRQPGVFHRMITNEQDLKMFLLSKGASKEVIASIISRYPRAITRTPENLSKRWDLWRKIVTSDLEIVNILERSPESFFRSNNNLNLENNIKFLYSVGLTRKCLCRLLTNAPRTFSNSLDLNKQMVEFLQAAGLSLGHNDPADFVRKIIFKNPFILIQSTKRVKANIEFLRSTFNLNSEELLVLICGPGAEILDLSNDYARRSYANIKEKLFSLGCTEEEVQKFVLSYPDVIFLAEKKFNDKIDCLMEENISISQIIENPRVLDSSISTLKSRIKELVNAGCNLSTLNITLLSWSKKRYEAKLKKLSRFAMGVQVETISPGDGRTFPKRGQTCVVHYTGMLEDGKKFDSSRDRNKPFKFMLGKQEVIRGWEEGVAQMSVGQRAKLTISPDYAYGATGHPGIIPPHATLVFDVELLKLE
# T7 sequence (P42345+Q04206 fused P42345:T2098L): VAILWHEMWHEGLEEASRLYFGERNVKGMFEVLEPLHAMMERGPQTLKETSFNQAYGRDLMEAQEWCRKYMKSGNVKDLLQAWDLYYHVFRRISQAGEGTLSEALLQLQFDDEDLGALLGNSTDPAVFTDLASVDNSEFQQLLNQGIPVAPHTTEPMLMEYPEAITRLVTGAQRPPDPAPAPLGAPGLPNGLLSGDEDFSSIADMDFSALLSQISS
# Chain of FRB and FKBP dimerization (P62942 whole entry, the tested form may be a part): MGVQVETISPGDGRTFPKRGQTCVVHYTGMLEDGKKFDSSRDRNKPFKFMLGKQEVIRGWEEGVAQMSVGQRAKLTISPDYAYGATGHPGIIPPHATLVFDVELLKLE
# Chain of FRB and FKBP dimerization (P42345 2012-2144 T2098L): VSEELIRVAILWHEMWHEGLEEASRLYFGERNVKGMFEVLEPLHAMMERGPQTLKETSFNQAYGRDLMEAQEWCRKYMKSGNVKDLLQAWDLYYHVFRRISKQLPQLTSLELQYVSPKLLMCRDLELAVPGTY
molecule,measurement,setting,value
CO[C@H]1C[C@@H]2CC[C@@H](C)[C@@](O)(O2)C(=O)C(=O)N2CCCC[C@H]2C(=O)O[C@H]([C@H](C)C[C@@H]2CC[C@@H](O)[C@H](OC)C2)CC(=O)[C@H](C)/C=C(\C)[C@@H](O)[C@@H](OC)C(=O)[C@H](C)C[C@H](C)/C=C/C=C/C=C/1C [rapamycin],physiological blood concentrations,[1],~ 22 nM
C16-(S)-7-methylindolerapamycin [A/C heterodimerizer],mCerulean levels versus inducer concentration,"[2]; HEK cells co-transfected with MTERF158-399::FKBP and FRB fusions to the strongest TADs, FIG. 10C",increased dose-dependently
same,EC50,"[2]; cMyc NLS linking MTERF158-399 and FKBP, AP6 linker linking FRB and RelA430-551, FIG. 10D",~60 nM
same,EC50,[3],~1 nM
B1,binding signal,[4],2 fold vs sense-5-9-8
B2,"DE genes, Regulation Up (up-regulated gene, Symbol)",[5],GDF15; also recorded: TRPV6; also recorded: HSPA7
B3,binding signal,[6],3.7 fold vs MTF
same,binding signal,MTERF1 58-399::2xFoxoTAD,~2 fold vs MTF
same,binding signal,MTERF1 58-399::2xTA1,201 fold vs one TA1 copy
same,binding signal,MTERF1 58-399::LMSTEN,11.3 fold lower than MTF
same,binding signal,MTERF1 58-399::FoxoTAD,8.4 fold lower than MTF
B4,Gol fluorescence levels with or without concomitant WT MTERF1 expression,[7],no difference in Gol fluorescence levels
same,"DE genes, Regulation Up (up-regulated gene, Symbol)",[5],Novel Transcript; also recorded: USP17L2; also recorded: HSPA7; also recorded: ADGRA1
